Assay results published in patent US20260242419A1, “A CYCLIC PEPTIDE FOR TRAPPING INTERLEUKIN-1 BETA” (Merck Sharp & Dohme LLC, priority 2023, published 2026).
Starred links: 1 amine or outer side, 2 acyl side, 3 side chain; linkers in the order of their positions; H or OH if unused. Non-standard residues stand in square brackets, D forms with d. Residues, ends and D or L forms follow the SMILES beside them. 3Pal4Ph4CO2H = 4-[5-[(2S)-2-amino-2-carboxy-ethyl]-2-pyridyl]benzoic acid, O=C([C@H](Cc1ccc(-c2ccc(C(=O)[*:3])cc2)nc1)N[*:1])[*:2]; TyrEtNAc = (2S)-3-[4-(2-acetamidoethoxy)phenyl]-2-amino-propanoic acid, CC(=O)NCCOc1ccc(C[C@H](N[*:1])C(=O)[*:2])cc1; dProc3Bn = (2R,3S)-3-benzylpyrrolidine-2-carboxylic acid, O=C([C@H]1[C@@H](Cc2ccccc2)CCN1[*:1])[*:2]; 3PyridaAla = (2S)-2-amino-3-pyridazin-3-yl-propanoic acid, O=C([C@H](Cc1cccnn1)N[*:1])[*:2]; Phe(4-(cis-4-COOH-cHex)) = N[C@@H](Cc1ccc([C@H]2CC[C@@H](C(=O)O)CC2)cc1)C(=O)O; dPro(4R-(4-pyridylmethyl)) = O=C(O)[C@H]1C[C@@H](Cc2ccncc2)CN1; Trp(βS-Me,4-F) = C[C@@H](c1c[nH]c2cccc(F)c12)[C@H](N)C(=O)O; Bip(4'-COOH) = N[C@@H](Cc1ccc(-c2ccc(C(=O)O)cc2)cc1)C(=O)O; Ala(1-bicyclo(1.1.1)pentyl) = N[C@@H](CC12CC(C1)C2)C(=O)O; dPro(4R-Bzl(4-F)) = O=C(O)[C@H]1C[C@@H](Cc2ccc(F)cc2)CN1; Ala(pyrimidin-5-yl) = N[C@@H](Cc1cncnc1)C(=O)O; Phe(4-CONH2) = NC(=O)c1ccc(C[C@H](N)C(=O)O)cc1; Phe(4-COOH) = N[C@@H](Cc1ccc(C(=O)O)cc1)C(=O)O; Ala(2-pyrazinyl) = N[C@@H](Cc1cnccn1)C(=O)O; Pro(cis-4-F) = O=C(O)[C@@H]1C[C@H](F)CN1; Ala(4-THP) = N[C@@H](CC1CCOCC1)C(=O)O; AEF = NCCOc1ccc(C[C@H](N)C(=O)O)cc1; 4Pal = N[C@@H](Cc1ccncc1)C(=O)O; d(αMeS) = C[C@@](N)(CO)C(=O)O; αMeK = C[C@](N)(CCCCN)C(=O)O; αMeS = C[C@](N)(CO)C(=O)O; Orn = NCCC[C@H](N)C(=O)O; Api = NC1(C(=O)O)CCNCC1; Dab = NCC[C@H](N)C(=O)O; Dap = NC[C@H](N)C(=O)O; Aib = CC(C)(N)C(=O)O

Experiments:
IL-1β = molecular target: T1, IL-1β (Homo sapiens, UniProt P01584); assay: IL-6 assay in MRC5 cells: inhibition of IL-1β induced IL-6 secretion (AlphaLISA); type: cell-based; conditions: inhibition of IL-1β induced IL-6 secretion in MRC5 cells; read-out: MRC5 IC50
T1 construct: purchased BioLegend 579404
T1 sequence (P01584 117-269): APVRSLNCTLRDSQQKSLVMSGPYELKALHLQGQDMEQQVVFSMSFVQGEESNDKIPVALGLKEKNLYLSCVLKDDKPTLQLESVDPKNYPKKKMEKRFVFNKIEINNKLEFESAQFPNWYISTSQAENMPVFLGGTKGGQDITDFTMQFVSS
In short: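 Compound was pre-incubated 1 h at ambient temperature with recombinant human IL-1β at 2λ EC80 before adding human lung fibroblast MRC5 cells (3000/well) in EMEM with 0.025% BSA. After overnight culture at 37 °C, 5% CO2, secreted IL-6 in conditioned medium was measured by AlphaLISA; IC50 from 4-parameter logistic fits.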

[1] = molecular target: Recombinant human IL-1β (BioLegend 579404) (human, UniProt P01584 117-269); assay: cell-based or functional assay

Molecule	IC50 (IL-1β) [nM]	MRC5 IC50 [1] [nM]
CC(=O)NCCOc1ccc(C[C@@H]2NC(=O)[C@H]3C[C@@H](Cc4ccncc4)CN3C(=O)CNC(=O)[C@H](CCN)NC(=O)[C@H](CCC(N)=O)NC(=O)[C@H](CC3CCOCC3)NC(=O)[C@@](C)(CO)NC(=O)[C@H](Cc3c[nH]c4ccccc34)NC(=O)[C@H](CO)NC(=O)C(C)(C)NC(=O)[C@H]([C@@H](C)c3c[nH]c4cccc(F)c34)NC(=O)[C@@H]3C[C@H](F)CN3C(=O)CNC(=O)[C@H](Cc3ccc(C(N)=O)cc3)NC(=O)[C@H](Cc3ccncc3)NC2=O)cc1 [Example 378] (cyclo([AEF](Ac)[4Pal][Phe(4-CONH2)]G[Pro(cis-4-F)][Trp(βS-Me,4-F)][Aib]SW[d(αMeS)][Ala(4-THP)]Q[Dab]G[dPro(4R-(4-pyridylmethyl))]))	0.043	
cyclo([3Pal4Ph4CO2H][Ala(1-bicyclo(1.1.1)pentyl)][Phe(4-COOH)]G[Pro(cis-4-F)][Trp(βS-Me,4-F)][Aib]EW[Aib][Dap]Q[Dab]G[dPro(4R-Bzl(4-F))]) (SMILES C[C@@H](c1c[nH]c2cccc(F)c12)[C@@H]1NC(=O)[C@@H]2C[C@H](F)CN2C(=O)CNC(=O)[C@H](Cc2ccc(C(=O)O)cc2)NC(=O)[C@H](CC23CC(C2)C3)NC(=O)[C@H](Cc2ccc(-c3ccc(C(=O)O)cc3)nc2)NC(=O)[C@H]2C[C@@H](Cc3ccc(F)cc3)CN2C(=O)CNC(=O)[C@H](CCN)NC(=O)[C@H](CCC(N)=O)NC(=O)[C@H](CN)NC(=O)C(C)(C)NC(=O)[C@H](Cc2c[nH]c3ccccc23)NC(=O)[C@H](CCC(=O)O)NC(=O)C(C)(C)NC1=O) [SEQ ID NO: 100]		0.074
cyclo([TyrEtNAc][4Pal][Phe(4-COOH)]G[Pro(cis-4-F)][Trp(βS-Me,4-F)][Aib]EW[Aib][Ala(pyrimidin-5-yl)]Q[Dab]G[dPro(4R-Bzl(4-F))]) (SMILES CC(=O)NCCOc1ccc(C[C@@H]2NC(=O)[C@H]3C[C@@H](Cc4ccc(F)cc4)CN3C(=O)CNC(=O)[C@H](CCN)NC(=O)[C@H](CCC(N)=O)NC(=O)[C@H](Cc3cncnc3)NC(=O)C(C)(C)NC(=O)[C@H](Cc3c[nH]c4ccccc34)NC(=O)[C@H](CCC(=O)O)NC(=O)C(C)(C)NC(=O)[C@H]([C@@H](C)c3c[nH]c4cccc(F)c34)NC(=O)[C@@H]3C[C@H](F)CN3C(=O)CNC(=O)[C@H](Cc3ccc(C(=O)O)cc3)NC(=O)[C@H](Cc3ccncc3)NC2=O)cc1) [SEQ ID NO: 10]		0.027
cyclo([Bip(4'-COOH)][4Pal][Phe(4-COOH)]G[Pro(cis-4-F)][Trp(βS-Me,4-F)][Aib]EW[Aib][Ala(2-pyrazinyl)]Q[Dab]G[dPro(4R-Bzl(4-F))]) [SEQ ID NO: 101]		0.021
cyclo([Phe(4-(cis-4-COOH-cHex))][Ala(1-bicyclo(1.1.1)pentyl)][Phe(4-COOH)]G[Pro(cis-4-F)][Trp(βS-Me,4-F)][αMeS]EW[Aib][Ala(pyrimidin-5-yl)]Q[Dab]G[dPro(4R-Bzl(4-F))]) (SMILES C[C@@H](c1c[nH]c2cccc(F)c12)[C@@H]1NC(=O)[C@@H]2C[C@H](F)CN2C(=O)CNC(=O)[C@H](Cc2ccc(C(=O)O)cc2)NC(=O)[C@H](CC23CC(C2)C3)NC(=O)[C@H](Cc2ccc([C@H]3CC[C@@H](C(=O)O)CC3)cc2)NC(=O)[C@H]2C[C@@H](Cc3ccc(F)cc3)CN2C(=O)CNC(=O)[C@H](CCN)NC(=O)[C@H](CCC(N)=O)NC(=O)[C@H](Cc2cncnc2)NC(=O)C(C)(C)NC(=O)[C@H](Cc2c[nH]c3ccccc23)NC(=O)[C@H](CCC(=O)O)NC(=O)[C@](C)(CO)NC1=O) [SEQ ID NO: 103]		0.06
cyclo([Bip(4'-COOH)][4Pal][Phe(4-COOH)]G[Pro(cis-4-F)][Trp(βS-Me,4-F)][Aib]SW[Aib][Ala(pyrimidin-5-yl)]Q[Orn]G[dPro(4R-(4-pyridylmethyl))]) (SMILES C[C@@H](c1c[nH]c2cccc(F)c12)[C@@H]1NC(=O)[C@@H]2C[C@H](F)CN2C(=O)CNC(=O)[C@H](Cc2ccc(C(=O)O)cc2)NC(=O)[C@H](Cc2ccncc2)NC(=O)[C@H](Cc2ccc(-c3ccc(C(=O)O)cc3)cc2)NC(=O)[C@H]2C[C@@H](Cc3ccncc3)CN2C(=O)CNC(=O)[C@H](CCCN)NC(=O)[C@H](CCC(N)=O)NC(=O)[C@H](Cc2cncnc2)NC(=O)C(C)(C)NC(=O)[C@H](Cc2c[nH]c3ccccc23)NC(=O)[C@H](CO)NC(=O)C(C)(C)NC1=O) [SEQ ID NO: 108]		0.024
cyclo([Bip(4'-COOH)][4Pal][Phe(4-COOH)]G[Pro(cis-4-F)][Trp(βS-Me,4-F)][Aib]EW[Aib][3PyridaAla]Q[Dab]G[dPro(4R-Bzl(4-F))]) (SMILES C[C@@H](c1c[nH]c2cccc(F)c12)[C@@H]1NC(=O)[C@@H]2C[C@H](F)CN2C(=O)CNC(=O)[C@H](Cc2ccc(C(=O)O)cc2)NC(=O)[C@H](Cc2ccncc2)NC(=O)[C@H](Cc2ccc(-c3ccc(C(=O)O)cc3)cc2)NC(=O)[C@H]2C[C@@H](Cc3ccc(F)cc3)CN2C(=O)CNC(=O)[C@H](CCN)NC(=O)[C@H](CCC(N)=O)NC(=O)[C@H](Cc2cccnn2)NC(=O)C(C)(C)NC(=O)[C@H](Cc2c[nH]c3ccccc23)NC(=O)[C@H](CCC(=O)O)NC(=O)C(C)(C)NC1=O) [SEQ ID NO: 102]		0.021
cyclo([Phe(4-(cis-4-COOH-cHex))][Ala(1-bicyclo(1.1.1)pentyl)][Phe(4-COOH)]G[Pro(cis-4-F)][Trp(βS-Me,4-F)][Aib]EW[Api]SQ[Dab]G[dPro(4R-Bzl(4-F))]) (SMILES C[C@@H](c1c[nH]c2cccc(F)c12)[C@@H]1NC(=O)[C@@H]2C[C@H](F)CN2C(=O)CNC(=O)[C@H](Cc2ccc(C(=O)O)cc2)NC(=O)[C@H](CC23CC(C2)C3)NC(=O)[C@H](Cc2ccc([C@H]3CC[C@@H](C(=O)O)CC3)cc2)NC(=O)[C@H]2C[C@@H](Cc3ccc(F)cc3)CN2C(=O)CNC(=O)[C@H](CCN)NC(=O)[C@H](CCC(N)=O)NC(=O)[C@H](CO)NC(=O)C2(CCNCC2)NC(=O)[C@H](Cc2c[nH]c3ccccc23)NC(=O)[C@H](CCC(=O)O)NC(=O)C(C)(C)NC1=O) [SEQ ID NO: 105]		0.083
cyclo([Phe(4-(cis-4-COOH-cHex))][Ala(1-bicyclo(1.1.1)pentyl)][Phe(4-COOH)]G[Pro(cis-4-F)][Trp(βS-Me,4-F)][αMeS]EW[Aib]SQ[Dab]G[dPro(4R-Bzl(4-F))]) (SMILES C[C@@H](c1c[nH]c2cccc(F)c12)[C@@H]1NC(=O)[C@@H]2C[C@H](F)CN2C(=O)CNC(=O)[C@H](Cc2ccc(C(=O)O)cc2)NC(=O)[C@H](CC23CC(C2)C3)NC(=O)[C@H](Cc2ccc([C@H]3CC[C@@H](C(=O)O)CC3)cc2)NC(=O)[C@H]2C[C@@H](Cc3ccc(F)cc3)CN2C(=O)CNC(=O)[C@H](CCN)NC(=O)[C@H](CCC(N)=O)NC(=O)[C@H](CO)NC(=O)C(C)(C)NC(=O)[C@H](Cc2c[nH]c3ccccc23)NC(=O)[C@H](CCC(=O)O)NC(=O)[C@](C)(CO)NC1=O) [SEQ ID NO: 107]		0.063
cyclo([Bip(4'-COOH)][4Pal][Phe(4-COOH)]G[Pro(cis-4-F)][Trp(βS-Me,4-F)][Aib]EW[Aib]FQSG[dProc3Bn]) (SMILES C[C@@H](c1c[nH]c2cccc(F)c12)[C@@H]1NC(=O)[C@@H]2C[C@H](F)CN2C(=O)CNC(=O)[C@H](Cc2ccc(C(=O)O)cc2)NC(=O)[C@H](Cc2ccncc2)NC(=O)[C@H](Cc2ccc(-c3ccc(C(=O)O)cc3)cc2)NC(=O)[C@H]2[C@@H](Cc3ccccc3)CCN2C(=O)CNC(=O)[C@H](CO)NC(=O)[C@H](CCC(N)=O)NC(=O)[C@H](Cc2ccccc2)NC(=O)C(C)(C)NC(=O)[C@H](Cc2c[nH]c3ccccc23)NC(=O)[C@H](CCC(=O)O)NC(=O)C(C)(C)NC1=O) [SEQ ID NO: 1]		0.093
cyclo([Phe(4-(cis-4-COOH-cHex))][Ala(1-bicyclo(1.1.1)pentyl)][Phe(4-COOH)]G[Pro(cis-4-F)][Trp(βS-Me,4-F)][αMeS]EW[αMeK][Ala(pyrimidin-5-yl)]Q[Dab]G[dPro(4R-Bzl(4-F))]) (SMILES C[C@@H](c1c[nH]c2cccc(F)c12)[C@@H]1NC(=O)[C@@H]2C[C@H](F)CN2C(=O)CNC(=O)[C@H](Cc2ccc(C(=O)O)cc2)NC(=O)[C@H](CC23CC(C2)C3)NC(=O)[C@H](Cc2ccc([C@H]3CC[C@@H](C(=O)O)CC3)cc2)NC(=O)[C@H]2C[C@@H](Cc3ccc(F)cc3)CN2C(=O)CNC(=O)[C@H](CCN)NC(=O)[C@H](CCC(N)=O)NC(=O)[C@H](Cc2cncnc2)NC(=O)[C@](C)(CCCCN)NC(=O)[C@H](Cc2c[nH]c3ccccc23)NC(=O)[C@H](CCC(=O)O)NC(=O)[C@](C)(CO)NC1=O) [SEQ ID NO: 104]		0.085
cyclo([Phe(4-(cis-4-COOH-cHex))][Ala(1-bicyclo(1.1.1)pentyl)][Phe(4-COOH)]G[Pro(cis-4-F)][Trp(βS-Me,4-F)][Aib]SW[Aib]SQ[Dab]G[dPro(4R-Bzl(4-F))]) (SMILES C[C@@H](c1c[nH]c2cccc(F)c12)[C@@H]1NC(=O)[C@@H]2C[C@H](F)CN2C(=O)CNC(=O)[C@H](Cc2ccc(C(=O)O)cc2)NC(=O)[C@H](CC23CC(C2)C3)NC(=O)[C@H](Cc2ccc([C@H]3CC[C@@H](C(=O)O)CC3)cc2)NC(=O)[C@H]2C[C@@H](Cc3ccc(F)cc3)CN2C(=O)CNC(=O)[C@H](CCN)NC(=O)[C@H](CCC(N)=O)NC(=O)[C@H](CO)NC(=O)C(C)(C)NC(=O)[C@H](Cc2c[nH]c3ccccc23)NC(=O)[C@H](CO)NC(=O)C(C)(C)NC1=O) [SEQ ID NO: 106]		0.031
